Experimental data reported in article doi:10.1101/2025.02.28.640611 (bioRxiv, 2025).

Biological target: the molecule itself
Test: cross-linking

B1: S. mutans ClpX with a C-terminal hexahistidine tag (enzyme)
chain: not shown
  stoichiometry N: 6
